Assay results as given in publication PMC5765332, “Evaluation of the Possible Utilization of ^68Ga-DOTATOC in Diagnosis of Adenocarcinoma Breast Cancer” (Asia Oceania Journal of Nuclear Medicine and Biology, 2018).

Assays:
in vivo [1] = assay: in vivo; design: species or system BALB/c mice; conditions: female, BALB/c, mouse, iv, 5.55 MBq, total radioactivity
Method: A few BALB/c mice that previously injected with spontaneous Murine Mammary Adenocarcinoma Cells (MMAC) which has been histopathologically approved for invasive ductal carcinoma, grade II/III, ([18]) were provided from Pasteur Institute, Tehran, Iran. These mice breast tumor model were used for development of the tumor allograft in other healthy Balb/c mice. For this purpose, the tumor allograft development was performed according to the previously reported procedure ([19]). Adenocarcinoma breast tumors of the mice were brought out and divided to 2–3 mm^3 segments. These segments were implanted percutaneously in the right side of the flank of inbred female BALB/c mice (16–25 g, 6–8 weeks old, Pasteur Institute, Tehran, Iran). 24-31 days post implantation, the tumor volume reached 70–80 mm^3. 5.55 MBq of final ^68Ga-DOTATOC solution was injected intravenously into the mice through their tail veins. Static PET images were captured for 10 min with three sets of emission images starting 30, 60 and 120 min post injection. In addition, PET emission scans were preceded by CT scans performed for anatomical reference and attenuation correction (spatial resolution 1.25 mm, 80 kV, 150 mAs) with a total CT scanning time of 20 s. Reconstruction was performed using the iterative algorithm with attenuation correction. The reconstruction settings were 4 iterations and 21 subsets to a 256×256 matrix, with a post-filtering of 2 mm. Transmission data were reconstructed within a matrix of equal size by means of filtered back-projection, yielding a co-registered image set. The reconstructed emission images were reformatted into coronal, sagittal and maximum intensity projection (MIP) image sets. Maximum, average and minimum standardized uptake values (SUV) for the observable organs in the images were calculated based on the region of interest (ROI) and according to Eq. 1: where C is the tissue radioactivity concentration (kBq/mL), I is the decay-corrected amount of injected radiolabeled complex [kBq], and w is the weight (g).

in vivo [2] = assay: in vivo; design: species or system BALB/c mice; conditions: female, BALB/c, mouse, iv, 5.55 MBq, total radioactivity; remark: listed apart in the source
Method: (§1) A few BALB/c mice that previously injected with spontaneous Murine Mammary Adenocarcinoma Cells (MMAC) which has been histopathologically approved for invasive ductal carcinoma, grade II/III, ([18]) were provided from Pasteur Institute, Tehran, Iran. These mice breast tumor model were used for development of the tumor allograft in other healthy Balb/c mice. For this purpose, the tumor allograft development was performed according to the previously reported procedure ([19]). Adenocarcinoma breast tumors of the mice were brought out and divided to 2–3 mm^3 segments. These segments were implanted percutaneously in the right side of the flank of inbred female BALB/c mice (16–25 g, 6–8 weeks old, Pasteur Institute, Tehran, Iran). 24-31 days post implantation, the tumor volume reached 70–80 mm^3. 100 μL of the radiolabeled complex with approximately 5.55 MBq radioactivity was injected intravenously into the BALB/c mice with adenocarcinoma breast cancer through their tail vein. The total amount of radioactivity injected into each animal was measured by counting the 1-mL syringe before and after injection in a dose calibrator with the fixed geometry. Biodistribution of the complex among tissues was determined by sacrificing the BALB/c mice at each selected time (15, 30 and 60 m) after injection using the animal care protocols. Blood samples were rapidly taken after scarification. The tissues (heart, kidneys, spleen, stomach, intestine, lung, liver, skin, bone, muscle, adrenal, pancreas and tumor) were weighed and rinsed with normal saline and their activities were determined with a p-type coaxial HPGe detector coupled with a multichannel analyzer. The percentage of injected dose per gram (%ID/g) for different organs was calculated by dividing the activity amount of each tissue (A) to the decay-corrected injected activity and the mass of each organ. Four […] were considered for each time interval. All values were expressed as mean ± standard deviation (Mean±SD) and the data were compared using Student’s T-test. P values of < 0.05 were considered statistically significant.

[3] = test system: BALB/c mice with adenocarcinoma breast cancer; assay: in vivo; conditions: mouse, iv
Method: as §1

Work on `C[C@@H](O)[C@@H]1NC(=O)[C@H](CCCCN)NC(=O)[C@@H](Cc2c[nH]c3ccccc23)NC(=O)[C@H](Cc2ccc(O)cc2)NC(=O)[C@@H](NC(=O)[C@@H](Cc2ccccc2)NC(=O)CN2CCN(CC(=O)O)CCN(CC(=O)O)CCN(CC(=O)O)CC2)CSSC[C@@H](C(=O)N[C@H](CO)[C@@H](C)O)NC1=O` [^68Ga-DOTATOC, metal not drawn] yielded an SUV at 0.5 h (in vivo [1]) of 0.66 SUV, an SUV at 1 h (in vivo [1]) of 0.28 SUV and an SUV at 2 h (in vivo [1]) of 0.18 SUV. The tissue to tissue ratio at 0.25 h (in vivo [2]; Tumor/blood ratio) was 2.38, the tissue to tissue ratio at 0.5 h (in vivo [2]; Tumor/blood ratio) was 3.37 and the tissue to tissue ratio at 1 h (in vivo [2]; Tumor/blood ratio) was 9.92. For the same molecule, the tissue to tissue ratio at 0.25 h (in vivo [2]; Tumor/muscle ratio) was 18.7, the tissue to tissue ratio at 0.5 h (in vivo [2]; Tumor/muscle ratio) was 20.8 and the tissue to tissue ratio at 1 h (in vivo [2]; Tumor/muscle ratio) was 19.8. The “blood clearance (in words)” value [3] was “fast blood clearance”.
